The text below walks through data of publication PMC11178655, “Dosimetry and pharmacokinetics of [^177Lu]Lu-satoreotide tetraxetan in patients with progressive neuroendocrine tumours” (European Journal of Nuclear Medicine and Molecular Imaging, 2024).

Each structure is given as a SMILES string. Where a SMILES comes first, the peptide text is derived from it. Bridges are numbered along the chain shown (N, C = ends). [ ]: non-standard residue; d: D form. The star is where a group is joined. DOTA = O=C(O)CN1CCN(CC(=O)O)CCN(CC(=O)*)CCN(CC(=O)O)CC1; dPhe(4-NHCONH2) = NC(=O)Nc1ccc(C[C@@H](N)C(=O)O)cc1; Dihydroorotyl(S) = O=C1C[C@@H](C(=O)*)NC(=O)N1; Phe(4-Cl) = N[C@@H](Cc1ccc(Cl)cc1)C(=O)O; Phe(4-NH2) = Nc1ccc(C[C@H](N)C(=O)O)cc1

The test system of series [1] is patients with progressive NETs. To be noted: cited from earlier work. From the text: A novel radiolabelled SSTR antagonist, [^177Lu]Lu-satoreotide tetraxetan (also known as [^177Lu]^177Lu-SSO110, [^177Lu]^177Lu-IPN01072, [^177Lu]^177Lu-OPS201 or [^177Lu]^177Lu-DOTA-JR11), has recently shown a favourable pharmacokinetic and biodistribution profile, as ... || In the present study, we observed tumour ADCs of 5.0 Gy/GBq after cycle 1 and 4.0 Gy/GBq after cycle 3. These tumour ADCs are consistent with previously reported findings from a direct comparison of [^177Lu]Lu-satoreotide tetraxetan and [^177Lu]Lu-DOTA-TATE in the same tumours and patients in a cross-over design, which reported median tumour dose of [^177Lu]Lu-satoreotide tetraxetan of 7.0 Gy/GBq (range: 4.2–29 Gy/GBq), 3.5 times greater than the median tumour dose of [^177Lu]Lu-DOTA-TATE [22]. However, it should be noted that median tumour dose in this pilot study was calculated from a limi ...

Series [2] in a line: Radioactive metabolites in plasma. The series is classed as in vivo, human. The conditions noted are these: 1 min, 4 h, and 1, 2, 3, and 6 days after each administration, two study centres. The protocol: To generate pharmacokinetic data, blood samples (2 mL) were taken at the stop of infusion (0 min) and 5, 30, and 60 min, 4 h, and 1, 2, 3, and 6 days after the end of each [^177Lu]Lu-satoreotide tetraxetan administration. Urine samples were collected over three intervals within 48 h (0–6 h, 6–24 h, and 24–48 h in part A; 0–4 h, 4–24 h, and 24–48 h in part B) following the first treatment cycle of [^177Lu]Lu-satoreotide tetraxetan. Total activity concentrations in whole blood and urine were determined locally, using a gamma counter calibrated for lutetium-177. In two selected study centres, additional blood samples (2 mL) were collected at 1 min, 4 h, and 1, 2, 3, and 6 days after each [^177Lu]Lu-satoreotide tetraxetan administration to evaluate potential radioactive metabolites in plasma.

[3] abbreviates: on average, single mean activity 1.0 GBq vs 1.1 GBq, four patients.

Consider `C[C@@H](O)[C@@H]1NC(=O)[C@H](CCCCN)NC(=O)[C@@H](Cc2ccc(NC(N)=O)cc2)NC(=O)[C@H](Cc2ccc(NC(=O)[C@@H]3CC(=O)NC(=O)N3)cc2)NC(=O)[C@H](NC(=O)[C@H](Cc2ccc(Cl)cc2)NC(=O)CN2CCN(CC(=O)O)CCN(CC(=O)O)CCN(CC(=O)O)CC2)CSSC[C@@H](C(=O)N[C@H](Cc2ccc(O)cc2)C(N)=O)NC1=O` [[^177Lu]Lu-satoreotide tetraxetan, metal not drawn] ({DOTA}-[Phe(4-Cl)][dC][Phe(4-NH2)](Dihydroorotyl(S))[dPhe(4-NHCONH2)]KTC[dY]-NH2; disulfide 2-7 (inferred); C-terminus assumed), for which the Median tumour dose in series [1] (cross-over design, 13 lesions in 4 patients) is recorded as 7.0 Gy/GBq. Moreover, in series [1] (setting [3]), the “Tumour absorbed dose compared with [^177Lu]Lu-DOTA-TATE” value is reported as “three-fold higher” and the “Tumour-to-kidney absorbed dose ratio compared with [^177Lu]Lu-DOTA-TATE” value is given as “two-fold higher”. Also, the “Median tumour dose relative to [^177Lu]Lu-DOTA-TATE” value in series [1] (same tumours and patients, cross-over) is on record as 3.5 times. Also, the “Radioactive metabolites in plasma samples” value in series [2] was “No radioactive metabolites were observed”.
